Assay results taken from paper PMC12846601.

Target: HexaPro, recombinant SARS-CoV-2 spike protein vaccine candidate (SARS-CoV-2) (UniProt P0DTC2)
Assay: SEC; […], PBS ([…], pH 6.5), 1.25 mL/min, […]

Substance: HexaPro, recombinant SARS-CoV-2 spike protein vaccine candidate (from UniProt P0DTC2 14-1273) (natural protein)
- stoichiometry N: 3
